Data on 1 molecule can be found in patent US12493026B2, “Tissue engineered 3D models for cancer metastasis” (The Board of Trustees of the Leland Stanford Junior …, priority 2019, dated 2025).

The test system of test [1] is MDA-MB-231 breast cancer cells. In words: Breast cancer cell invasion into tissue engineered bone in spatially patterned 3D coculture (fluorescence imaging). In kind it is cell-based. The following applies: 1 μg/mL PTH for 6 hours every 48 hours; MDA-MB-231 coculture, 7 days; FIG. 7(A). An excerpt:
To mimic the microanatomical structures of breast cancer invasion into bone through bone marrow/long bone interface (FIGS. 1A and 1B), a “doughnut shape” 3D co-culture model was developed with mesenchymal stem cell (MSC)-formed tissue engineered bone in the outside ring, and breast cancer cells in the center (FIG. 1C). To facilitate imaging the two cell populations, human MSCs were fluorescently labelled red and breast cancer cells were labeled green (GFP). Gelatin μRBs were synthesized as previously reported. Freeze-dried μRBs were rehydrated in PBS containing 0.05% lithium phenyl-2,4,6-trimethylbenzoylphosphinate photoinitiator. […] Breast cancer invasion into tissue engineered bone was monitored using fluorescence imaging at the interface between the outer and inner disks.
Cocultures of MDA-MB-231 and tissue engineered bone were developed as previously described. […] Breast cancer cell invasion into tissue-engineered bone was monitored using fluorescence microscopy every other day for 7 days. Bone mineralization was monitored using X-ray microcomputed tomography (GE CT120) with setting of 100 kV X-ray voltage, 500 μA current, 50 μm voxel resolution and continuous 360° rotation scanning. Reconstructed 3D μCT images were analyzed for changes in bone mineral density using Parallax Microview. […]

Test [2] has as its system MDA-MB-231 breast cancer cells. In words: Breast cancer cell proliferation in 3D coculture (bioluminescence imaging). In kind it is cell-based. The note with it: 1 μg/mL PTH for 6 hours every 48 hours, FIG. 7(B). From the text: To evaluate the effect of breast cancer cell aggressiveness in their invasion rate into bone, MDA-MB-231 breast cancer cells (more aggressive) were compared to MCF-7 breast cancer cells (less aggressive). Tissue engineered bone was generated as described previously. MDA-MB-231 and MCF-7 breast cancer cells were encapsulated into gelatin μRBs forming 2 mm diameter disks, which were introduced into the center of tissue-engineered bone and placed in EMEM growth media for 7 days. Breast cancer invasion into all groups was performed using fluorescence imaging at the interface between the outer and inner disks over 7 days. Cell proliferation was tracked over the culture period using bioluminescence imaging.
Cocultures of MDA-MB-231 and tissue engineered bone were developed as previously described. Upon starting the coculture, scaffolds were treated with 1 μg/mL of parathyroid hormone (PTH) or PBS control for 6 hours every 48 hours. Breast cancer cell invasion into tissue-engineered bone was monitored using fluorescence microscopy every other day for 7 days. Bone mineralization was monitored using X-ray microcomputed tomography (GE CT120) with setting of 100 kV X-ray voltage, 500 μA current, 50 μm voxel resolution and continuous 360° rotation scanning. Reconstructed 3D μCT images were analyzed for changes in bone mineral density using Parallax Microview. […]

Another test has as its system hMSC-derived osteoblasts. Kind of test: Osteoblast cell proliferation/survival in 3D coculture (bioluminescence imaging). The following applies: 1 μg/mL PTH for 6 hours every 48 hours, FIG. 8(A). In kind it is cell-based, human. The method, then: (§1) Cocultures of MDA-MB-231 and tissue engineered bone were developed as previously described. Upon starting the coculture, scaffolds were treated with 1 μg/mL of parathyroid hormone (PTH) or PBS control for 6 hours every 48 hours. Breast cancer cell invasion into tissue-engineered bone was monitored using fluorescence microscopy every other day for 7 days. Bone mineralization was monitored using X-ray microcomputed tomography (GE CT120) with setting of 100 kV X-ray voltage, 500 μA current, 50 μm voxel resolution and continuous 360° rotation scanning. Reconstructed 3D μCT images were analyzed for changes in bone mineral density using Parallax Microview. Osteoblast cell proliferation was tracked over the culture period using bioluminescence imaging.

In test [3] the test system is tissue engineered bone. Kind of test: Bone mineral density of tissue engineered bone in 3D coculture (μCT). Type of test: cell-based, human. The note with it: 1 μg/mL PTH for 6 hours every 48 hours, FIG. 8(C). The method, then:
Bone mineral density was evaluated over 14 days by comparing tissue engineered bone cultured with (+BrCa) and without (−BrCa) breast cancer cells. Cocultures of tissue engineered bone with MDA-MB-231 were generated as described previously and cultured in EMEM GM for 14 days. Bone mineralization was monitored using X-ray microcomputed tomography (GE CT120) with setting of 100 kV X-ray voltage, 500 μA current, 50 μm voxel resolution and continuous 360° rotation scanning. Reconstructed 3D μCT images will be analyzed for changes in bone mineral density using Parallax Microview.
as §1

Test [4] concerns tissue engineered bone. In words: Breast cancer-induced bone resorption in 3D tri-culture model of osteoclasts, osteoblasts and breast cancer cells (μCT). Type of test: cell-based. The note with it: 14 days. The method, then:
In order to assess the effect of breast cancer in promoting osteoclast activation and bone resorption, the bone mineral density of (1) tissue engineered bone alone (No BrCa), (2) tissue engineered bone+MDA-MB-231 breast cancer cells, and (3) tissue engineered bone+MCF-7 breast cancer cells were evaluated. Tissue engineered bone was developed as described previously. After 28 days in osteogenic media, a 2 mm diameter disk was cut out from the center of tissue engineered bone, leaving an empty hole in the center. Prior to introducing breast cancer cells, 1 million osteoclasts were seeded directly over tissue engineered bone and incubated for 1 hour to allow cells to attach. […] Bone mineralization was monitored using X-ray microcomputed tomography (GE CT120) with setting of 100 kV X-ray voltage, 500 μA current, 50 μm voxel resolution and continuous 360° rotation scanning. Reconstructed 3D μCT images were analyzed for changes in bone mineral density using Parallax Microview.
Validation was performed of a 3D tri-culture model that includes osteoclasts, osteoblasts, and breast cancer cells to mimic clinical outcomes effects of parathyroid hormone treatment on breast cancer patients.
Compared to the bi-culture model earlier (osteoblasts+breast cancer cells), this tri-culture model involves additional osteoclasts seeded on top of the scaffolds. […]

The test system of test [5] is breast cancer cell-bone metastasis. The following applies: mouse models; cited from earlier work.

B1: parathyroid hormone (protein, UniProt P01270 32-115, looked up)
Parathyroid hormone: SVSEIQLMHNLGKHLNSMERVEWLRKKLQDVHNFVALGAPLAPRDAGSQRPRKKEDNVLVESHEKSLGEADKADVNVLTKAKSQ
modifications: Parathyroid hormone
notes: parathyroid hormone; drug that reduces breast cancer-bone metastasis in vivo
In the case of B1, in test [1], the “breast cancer cell invasion into tissue engineered bone” value was “significantly reduces”. Moreover, the “breast cancer cell proliferation” value in test [2] is “does not impact”. In the test with hMSC-derived osteoblasts, the “osteoblast cell survival in the presence of breast cancer invasion” value is listed as “enhances”. The “breast cancer cell-induced reduction in bone mineralization (bone mineral density)” value with tissue engineered bone [3] is reported as “prevents”. Further, the figures for the “breast cancer-induced bone resorption (bone loss)” value with tissue engineered bone [4] (continuous PTH treatment (cPTH)) and in the test on tissue engineered bone [4] (intermittent PTH treatment (iPTH)) were “does not reduce” and “can reduce”, respectively. The “breast cancer cell-bone metastasis” value in test [5] is given as “specifically reduce”.
